Test results taken from paper PMC11931385, “Structural and functional analysis of cancer-associated missense variants in the retinoblastoma protein pocket domain” (The Journal of Biological Chemistry, 2025).
Changes are numbered by the printed parent chain. In names and notes the source's numbering stands. No end group written: not given here. TMR = tetramethyl rhodamine dye

What was measured:
Experiment in all cases: fluorescence polarisation; 37 °C, after the 25 °C reading ramped over 7 min to 37 °C and 2 min incubation; unlabeled Rb^P against 1.5 nM TMR-E2F1^TD or 7.5 nM TMR-E7^LxCxE; 25 mM Tris pH 8.0, 200 mM NaCl, 1 mM DTT, 0.1% Tween-20; apparent Kd
Details in all cases: both partners purified
Rb^P Q504E = molecular target: T1, Rb^P Q504E (human, UniProt P06400 380-788, Q504E)
T1 construct: also called variant 19
T1 sequence (looked up): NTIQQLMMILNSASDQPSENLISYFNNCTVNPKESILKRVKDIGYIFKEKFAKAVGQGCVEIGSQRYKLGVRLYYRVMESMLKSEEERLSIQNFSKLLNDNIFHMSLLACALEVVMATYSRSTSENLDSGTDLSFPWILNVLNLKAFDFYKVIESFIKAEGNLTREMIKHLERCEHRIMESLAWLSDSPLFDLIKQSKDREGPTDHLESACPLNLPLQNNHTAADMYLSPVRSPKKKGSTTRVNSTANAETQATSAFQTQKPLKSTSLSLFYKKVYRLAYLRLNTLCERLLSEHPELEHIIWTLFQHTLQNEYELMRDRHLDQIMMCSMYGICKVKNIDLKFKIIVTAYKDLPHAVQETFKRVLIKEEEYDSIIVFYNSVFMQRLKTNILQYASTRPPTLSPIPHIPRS

Rb^P A525G = molecular target: T2, Rb^P A525G (human, UniProt P06400 380-788, A525G)
T2 construct: also called variant 20
T2 sequence (looked up): T1 sequence (looked up) with E125Q, A146G

Rb^P D584Y = molecular target: T3, Rb^P D584Y (human, UniProt P06400 380-788, D584Y)
T3 construct: also called variant 32
T3 sequence (looked up): T1 sequence (looked up) with E125Q, D205Y

Rb^P Y606C = molecular target: T4, Rb^P Y606C (human, UniProt P06400 380-788, Y606C)
T4 construct: also called variant 37
T4 sequence (looked up): T1 sequence (looked up) with E125Q, Y227C

Rb^P R741H = molecular target: T5, Rb^P R741H (human, UniProt P06400 380-788, R741H)
T5 construct: also called variant 69
T5 sequence (looked up): T1 sequence (looked up) with E125Q, R362H

B1: TMR-E2F1^TD, peptide of the E2F1 transactivation domain (peptide)
peptide: {TMR}-GEGIRDLFDCDFGDLTPLD
notes: also called E2F^TD; source: synthetic peptide, bought: GenScript
B1 showed a Kd (Rb^P Q504E) of 33 nM, a Kd (Rb^P A525G) of 65 nM and a Kd (Rb^P D584Y) of 51 nM. It also gave a Kd (Rb^P Y606C) of 27 nM and a Kd (Rb^P R741H) of 41 nM.

B2: TMR-E7^LxCxE, LxCxE peptide of the E7 oncoprotein from HPV (peptide)
peptide: DLYCYEQLN
modifications: also: TMR label, position not given here
notes: source: synthetic peptide, bought: GenScript
For B2, the Kd (Rb^P Q504E) was 11 nM, the Kd (Rb^P A525G) was 52 nM and the Kd (Rb^P D584Y) was 20 nM. It also gave a Kd (Rb^P Y606C) of 23 nM and a Kd (Rb^P R741H) of 21 nM.
